The record followed here is article PMC4838378 (Nucleic Acids Research, 2016).

The data set “cross-linking” concerns the molecule itself. The data set can be described thus: cross-linking.
Data set [1] deals with T1, HpDnaB replicative helicase (Helicobacter pylori, UniProt O25916 1-488).
T1 sequence: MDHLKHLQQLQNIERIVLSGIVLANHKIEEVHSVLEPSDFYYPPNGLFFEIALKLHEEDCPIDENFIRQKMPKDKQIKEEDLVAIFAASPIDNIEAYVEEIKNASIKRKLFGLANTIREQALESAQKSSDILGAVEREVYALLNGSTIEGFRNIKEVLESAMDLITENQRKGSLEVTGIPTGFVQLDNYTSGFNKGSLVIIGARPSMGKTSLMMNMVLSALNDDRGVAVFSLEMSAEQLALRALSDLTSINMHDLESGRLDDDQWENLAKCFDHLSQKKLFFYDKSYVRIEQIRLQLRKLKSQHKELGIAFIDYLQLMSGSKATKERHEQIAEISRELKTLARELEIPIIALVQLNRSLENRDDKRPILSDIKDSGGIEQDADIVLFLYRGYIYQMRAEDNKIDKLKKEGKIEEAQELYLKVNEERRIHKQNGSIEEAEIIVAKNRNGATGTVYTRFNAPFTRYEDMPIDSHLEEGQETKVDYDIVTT
The data set can be described thus: pull-down.

A further data set deals with T2, Hp0897 (Helicobacter pylori 26695, UniProt O25557 1-208).
T2 sequence: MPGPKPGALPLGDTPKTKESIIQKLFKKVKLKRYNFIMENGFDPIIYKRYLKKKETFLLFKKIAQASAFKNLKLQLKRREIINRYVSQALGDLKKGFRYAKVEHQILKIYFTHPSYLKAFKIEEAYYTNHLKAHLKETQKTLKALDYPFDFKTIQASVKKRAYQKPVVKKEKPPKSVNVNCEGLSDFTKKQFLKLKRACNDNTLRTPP
The data set can be described thus: EMSA.

Data set [2] deals with T3, HpDnaB replicative helicase;Hp0897 (Helicobacter pylori;Helicobacter pylori …, UniProt O25916;O25557 1-488;1-208, |).
T3 sequence 1: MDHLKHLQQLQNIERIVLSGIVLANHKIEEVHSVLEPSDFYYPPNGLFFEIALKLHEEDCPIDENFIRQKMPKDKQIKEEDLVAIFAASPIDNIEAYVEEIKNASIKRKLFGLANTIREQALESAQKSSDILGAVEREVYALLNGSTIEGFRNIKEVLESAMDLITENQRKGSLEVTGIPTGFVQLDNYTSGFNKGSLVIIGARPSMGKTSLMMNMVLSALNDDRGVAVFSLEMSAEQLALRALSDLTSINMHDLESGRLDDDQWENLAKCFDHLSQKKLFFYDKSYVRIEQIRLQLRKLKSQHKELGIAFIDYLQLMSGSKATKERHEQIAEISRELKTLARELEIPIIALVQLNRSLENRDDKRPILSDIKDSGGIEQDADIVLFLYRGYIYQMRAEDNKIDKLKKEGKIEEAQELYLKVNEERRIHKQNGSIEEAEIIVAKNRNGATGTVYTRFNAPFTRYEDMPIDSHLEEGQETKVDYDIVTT
T3 sequence 2: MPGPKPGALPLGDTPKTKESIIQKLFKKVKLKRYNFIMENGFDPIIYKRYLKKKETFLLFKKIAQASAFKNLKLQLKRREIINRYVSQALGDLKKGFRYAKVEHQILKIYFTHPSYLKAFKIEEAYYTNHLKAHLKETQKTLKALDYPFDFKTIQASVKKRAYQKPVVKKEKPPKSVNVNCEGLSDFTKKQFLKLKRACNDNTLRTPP
The data set is described as follows: EMSA. A general note: A gel shift assay detects complexes by their altered migration in electrophoresis.

For data set [3], the target named is T3, HpDnaB replicative helicase;Hp0897. The data set is described as follows: EMSA. The source holds these as a separate data set.

Read-outs that look alike come from different tables or passages of the source.

B1: His6-Hp0897 (natural protein, Helicobacter pylori strain 26695, UniProt O25557 1-208, looked up)
chain: MPGPKPGALPLGDTPKTKESIIQKLFKKVKLKRYNFIMENGFDPIIYKRYLKKKETFLLFKKIAQASAFKNLKLQLKRREIINRYVSQALGDLKKGFRYAKVEHQILKIYFTHPSYLKAFKIEEAYYTNHLKAHLKETQKTLKALDYPFDFKTIQASVKKRAYQKPVVKKEKPPKSVNVNCEGLSDFTKKQFLKLKRACNDNTLRTPP
Usually stoichiometry N stands for the number of molecules, sites or subunits per partner or assembly. With B1, in the data set “cross-linking”, the “stoichiometry N” value came out at 2.

B2: biotinylated 70-nt ssDNA-1 (ssDNA)
DNA: CTGCCACACACCACCAAAGCTAACTGACAGCAGAATCCAGATGGATCATTTAAAGCATTTGCAACAATTG
modifications: 5' biotin
In the case of B2, the binding result in data set [1] was “binds”.

B3: 70NZ ssDNA-1 (ssDNA)
DNA: CTGCCACACACCACCAAAGCTAACTGACAGCAGAATCCAGATGGATCATTTAAAGCATTTGCAACAATTG
Consider B3, for which the binding result (with Hp0897; in data set [2]) was “binds” throughout.

B4: 70-nt forked DNA (ssDNA-1/ssDNA-2) (dsDNA)
DNA 1: CTGCCACACACCACCAAAGCTAACTGACAGCAGAATCCAGATGGATCATTTAAAGCATTTGCAACAATTG
DNA 2: CAATTGTTGCAAATGCTTTAAATGATCCATGACCTAAGACGACAGTCAATCGAACCACCACACACCGTC
Consider B4, for which the binding result in data set [3] is recorded as “binds”.
